Experimental findings from patent publication US20070244042A1 (University of Texas, published 2007) are described below.

First the molecules themselves.
T1: E-domain of betaglycan (BGe) (Rattus norvegicus, UniProt P26342 24-409)
T1 construct: also called sRIIIe; sBGe
T1 sequence: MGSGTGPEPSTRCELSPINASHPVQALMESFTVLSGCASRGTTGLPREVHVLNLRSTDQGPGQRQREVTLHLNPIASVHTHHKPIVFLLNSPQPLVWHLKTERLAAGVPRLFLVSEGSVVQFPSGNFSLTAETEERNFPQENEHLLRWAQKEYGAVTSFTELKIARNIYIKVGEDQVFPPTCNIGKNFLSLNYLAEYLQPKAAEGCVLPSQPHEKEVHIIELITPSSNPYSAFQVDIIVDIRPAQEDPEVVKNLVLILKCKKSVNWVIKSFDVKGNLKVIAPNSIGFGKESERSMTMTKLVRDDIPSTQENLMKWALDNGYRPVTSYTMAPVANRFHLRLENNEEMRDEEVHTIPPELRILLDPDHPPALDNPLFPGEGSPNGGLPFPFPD

B1: TGFβ2 (ligand)
chain: ALDAAYCFRNVQDNCCLRPLYIDFKRDLGWKWIHEPKGYNANFCAGACPYLWSSDTQHSRVLSLYNTINPEASASPCCVSQDLEPLTILYYIGKTPKIEQLSNMIVKSCKCS
notes: also called TGFβ2 homodimer; transforming growth factor beta 2
B2: TGFβ type II receptor extracellular domain (sRII) (receptor)
chain: MIPPHVQKSVNNDMIVTDNNGAVKFPQLCKFCDVRFSTCDNQKSCMSNCSITSICEKPQEVCVAVWRKNDENITLETVCHDPKLPYHDFILEDAASPKCIMKEKKKPGETFFMCSCSSDECNDNIIFSEEYNTSNPD
notes: also called recombinant sRII; extracellular domain of RII

Experiment [1] deals with B2. As to the kind of experiment: electrophoretic mobility shift, 12% native polyacrylamide gel pH 8.8, Coomassie staining. The source says:
(§1) Referring now to FIG. 1, binding of the E-domain of betaglycan (BGe) and the TGFβ type II receptor extracellular domain (sRII) to TGFβ2. A. Electrophoretic mobility shift assay in which an increasing amount of sRII has been added to a fixed amount of TGFβ2 and then applied to 12% native polyacryamide gel at pH 8.8. The relative molar amounts of TGFβ2 and sRII used in the assay are indicated above the gel. The protein bands were visualized by Coomassie blue staining. B. Electrophoretic mobility shift assay in which an increasing amount of BGe has been added to a fixed amount of TGFβ2 and then applied to 12% native polyacryamide gel at pH 8.8. The relative molar amounts of TGFβ2 and BGe (sRIIIe) used in the assay are indicated above the gel. The protein bands were visualized by Coomassie blue staining. The arrow labeled BC designates the binary complex formed between TGFβ2 and BGe. C. […] Purified TGFβ2 and BGe have also been applied to the SDS gel as controls. Relative molar amounts are indicated above the gel. The protein bands were visualized by Coomassie blue staining. On the basis of the relative amounts of TGFβ2 and BGe (sRIIIe) in the binary complex, together with the relative band intensities for the TGFβ2 and BGe (sRIIIe) controls, we tentatively conclude that BGe and the TGFβ2 homodimer bind with 1:1 stochiometry.
For orientation: Mobility shift assays separate free from complexed probe on a gel.

In experiment [2] the target is T1, E-domain of betaglycan (BGe). The experiment is described as above.
Excerpt: as §1

Regarding B1, in experiment [1], the binding result is listed as “no binding”.

Regarding B2, the binding result in experiment [2] is “no binding”.
